Laboratory results taken from patent US20150299255A1.

Molecular target: lectin SNA1 from Sambucus nigra (Sambucus nigra), Q41358
Assay: solid-phase assay, peptide titrated into wells containing bound lectin (FIG. 7)

lectin SNA1 from Sambucus nigra (Sambucus nigra), Q41358, sequence (Q41358 29-289 limits assumed, chain 1 of 2): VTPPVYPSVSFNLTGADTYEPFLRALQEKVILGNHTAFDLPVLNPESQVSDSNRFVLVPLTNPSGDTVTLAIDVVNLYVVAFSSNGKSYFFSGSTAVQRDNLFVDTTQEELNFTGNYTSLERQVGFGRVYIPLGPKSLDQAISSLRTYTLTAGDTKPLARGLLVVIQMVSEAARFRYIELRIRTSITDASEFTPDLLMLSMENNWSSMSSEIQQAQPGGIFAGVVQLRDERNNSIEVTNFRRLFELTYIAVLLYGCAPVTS
lectin SNA1 from Sambucus nigra (Sambucus nigra), Q41358, sequence (Q41358 309-570 limits assumed, chain 2 of 2): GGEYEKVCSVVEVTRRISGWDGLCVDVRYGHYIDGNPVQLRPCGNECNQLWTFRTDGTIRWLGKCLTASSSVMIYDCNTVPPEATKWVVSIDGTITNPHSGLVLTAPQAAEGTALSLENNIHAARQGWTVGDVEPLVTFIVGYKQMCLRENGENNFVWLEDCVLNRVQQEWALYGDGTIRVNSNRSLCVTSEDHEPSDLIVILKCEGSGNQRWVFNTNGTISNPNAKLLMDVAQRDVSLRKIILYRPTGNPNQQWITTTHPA

B1: biotinylated quadravalent SVH1C (peptide)
peptide: NPSHPLSGGGGS
chain: KKKK
modifications: not checked
amount of peptide at half-maximal binding (pmoles peptide per well): 25
